Data on one molecule can be found in PMC12097149.

The target of assay [1] is mouse CARMIL2 Q538E (untagged, CARMIL2^QE) (mouse). Nature of the assay: co-IP; Immunoprecipitation with anti-CARMIL2 (EM-53) from lysates of short-term expanded mouse CD8+ (OT-I) and CD4+ T cells (Carmil2^QE, Carmil2^QE Cd28-/-), immunoblot with anti-CARMIL2 and anti-CARD11; cells untreated or treated with pervanadate for 2 and 5 min at 37°C.
Assay [2] concerns the target mouse CARMIL2 Q538E tagged with a Twin-Strep-tag at the N terminus (CARMIL2^QE-OST) (mouse). Nature of the assay: affinity purification with mass spectrometry; OST-tagged CARMIL2 purified on Strep-Tactin Sepharose beads from lysates of short-term expanded mouse CD4+ T cells, untreated or treated with pervanadate for 2, 5 and 10 min; label-free quantitative MS, interaction stoichiometries.

B1: mouse CARD11 (natural protein)
chain: MPGGGPAMDDYMETLKDEEEALWDNVECNRHMLSRYINPAKLTPYLRQCKVIDEQDEDEVLNAPMLPSKINRAGRLLDILHTKGQRGYVVFLESLEFYYPELYKLVTGKEPTRRFSTIVVEEGHEGLTHFLMNEVIKLQQQVKAKDLQRCELLAKSRQLEDEKKQLSLIRVELLTFQERYYKMKEERDSYNDELVKVKDDNYNLAMRYAQLSEEKNMAVMRSRDLQLEIDQLKHRLNKMEEECKLERNQSLKLKNDIENRPRKEQVLELERENEMLKTKIQELQSIIQAGKRSLPDSDKAILDILEHDRKEALEDRQELVNKIYNLQEEVRQAEELRDKYLEEKEDLELKCSTLGKDCEMYKHRMNTVMLQLEEVERERDQAFHSRDEAQTQYSQCLIEKDKYRKQIRELEEKNDEMRIEMVRREACIVNLESKLRRLSKDNGSLDQSLPRHLPATIISQNLGDTSPRTNGQEADDSSTSEESPEDSKYFLPYHPPRRRMNLKGIQLQRAKSPISMKQASEFQALMRTVKGHEEDFTDGSPSSSRSLPVTSSFSKMQPHRSRSSIMSITAEPPGNDSIVRRCKEDAPHRSTVEEDNDSCGFDALDLDDENHERYSFGPPSIHSSSSSHQSEGLDAYDLEQVNLMLRKFSLERPFRPSVTSGGHVRGTGPLVQHTTLNGDGLITQLTLLGGNARGSFIHSVKPGSLAERAGLREGHQLLLLEGCIRGERQSVPLDACTKEEARWTIQRCSGLITLHYKVNHEGYRKLLKEMEDGLITSGDSFYIRLNLNISSQLDACSMSLKCDDVVHVLDTMYQDRHEWLCARVDPFTDQDLDTGTIPSYSRAQQLLLVKLQRLVHRGNREEADSAHHTLRSLRNTLQPEEMLSTSDPRVSPRLSRASFFFGQLLQFVSRSENKYKRMNSNERVRIISGSPLGSLSRSSLDATKLLTEKHEELDPENELSRNLTLIPYSLVRAFHCERRRPVLFTPTMLAKTLVQKLLNSGGAMEFTICKSDIVTRDEFLRKQKTETIIYSREKNPNTFECIVPANIEAVAAKNKHCLLEAGIGCVRDLIKCKVYPIVLLIRVSEKNIKRFRKLLPRPETEEEFLRVCRLKEKELEALPCLYATVEAEMWSSVEELLRVLKDKIVEEQRKTIWVDEDQL
B1 came in with a fold lower level of complexes in unstimulated Carmil2^QE Cd28-/- CD4+ T cells than in unstimulated Carmil2^QE CD4+ T cells in assay [1] of 2 fold. In assay [2], this molecule gave a fold increase of the interaction stoichiometry after T cell activation over that in resting cells of 7 fold and a percent of the available CARMIL2^QE-OST molecules complexed to CARD11 after 2 min of activation of 12%.
